Experimental data: patent US7192728B2, “Screening assays for agents that alter inhibitor of apoptosis (IAP) protein regulation of caspase activity” (The Burnham Institute, priority 1997, dated 2007)

Columns and labels:
[1] = test system: DEVD-pNA hydrolysis activity in 293 cell cytosolic extracts; test: Cytochrome c/dATP-induced caspase activation (DEVD hydrolysis) in 293 cell cytosolic extracts; type: biochemical, human
Description: Cells were washed with ice cold buffer A (20 mM Hepes (pH 7.5), 10 mM KCl, 1.5 mM MgCl2, 1 mM EDTA, 1 mM DTT and 0.1 mM PMSF) and suspended in 1 vol buffer A, then incubated on ice for 20 min. 293 cells were disrupted by passage 15× through a 26 gauge needle and Jurkat T cells were disrupted by dounce homogenization in 2 ml using 15 strokes with a pestle B. Cell extracts (10–15 mg total protein/ml) were clarified by centrifugation at 16,000×g for 30 min, then the NaCl concentration was increased by 50 mM. Cytosolic fractions were used immediately or stored frozen at −80° C.
Caspase activity was assayed by release of either 7-amino-4-trifluoromethyl-coumarin (AFC) or p-nitroanilide (pNA) from benzylyoxycarbonyl-DEVD (SEQ ID NO: 2) or benzylyoxycarbonyl-YVAD (SEQ ID NO: 3) synthetic peptides using a Molecular Devices Spectromax 340 for AFC labeled peptides or Perkin/Elmer LS50B for pNA labeled peptides (see Example II; see, also, Zhou et al., supra, 1997). Cytosolic extracts from 293 cells or Jurkat T cells were used directly (negative control) or were treated with 1 μM cytochrome c and 1 mM dATP or with cytochrome c, dATP and 0.2 μM GST-XIAP. Additional control reactions were performed by substituting 2 μM GST-Bcl-2, GST-Bax, GST-NM23 or GST-CD40 cytosolic domain, or 5 μM His6-S5a protein for GST-XIAP. DEVD-pNA hydrolysis was measured at various times and multiple experiments were performed using several different GST-XIAP preparations.

pro-caspase-9 [2] = molecular target: T1, pro-caspase-9 (Homo sapiens, UniProt P55211); test: In vitro reconstituted pro-caspase-9 processing (Apaf-1, cytochrome c, dATP); type: biochemical; settings: 0.1 μM protein; Apaf-1, 10 μM cytochrome c, 1 mM dATP
T1 construct: in vitro translated ^35S-labeled pro-caspase-9 and Apaf-1 were incubated individually or together; His6; made in house; host or cells: coupled in vitro transcription/translation in reticulocyte lysate (TNT kit, Promega)
T1 sequence (P55211 1-416): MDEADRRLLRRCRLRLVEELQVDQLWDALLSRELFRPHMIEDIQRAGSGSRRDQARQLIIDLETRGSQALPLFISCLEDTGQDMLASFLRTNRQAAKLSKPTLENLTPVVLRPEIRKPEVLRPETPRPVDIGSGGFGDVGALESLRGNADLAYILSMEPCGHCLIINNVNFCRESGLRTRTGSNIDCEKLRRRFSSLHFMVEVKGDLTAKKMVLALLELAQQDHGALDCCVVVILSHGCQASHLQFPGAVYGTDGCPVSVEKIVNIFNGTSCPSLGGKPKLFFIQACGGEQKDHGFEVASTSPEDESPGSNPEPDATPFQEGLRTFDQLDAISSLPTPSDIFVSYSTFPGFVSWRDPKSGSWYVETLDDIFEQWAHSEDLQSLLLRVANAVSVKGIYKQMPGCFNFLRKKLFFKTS

caspase-9 = molecular target: T2, caspase-9 (Homo sapiens, UniProt P55211); test: Inhibition of purified recombinant active caspase-9; type: biochemical; settings: for pro-caspase-3 activation by caspase-9, coupled Ac-DEVD-AFC hydrolysis (in words): coupled reaction
T2 construct: Full length N-terminally tagged caspase-9 was subcloned from pcDNA3; His6 (N); made in house; host or cells: E. coli BL21 (DE3), vector pET-23d
T2 sequence (P55211 1-315 limits assumed): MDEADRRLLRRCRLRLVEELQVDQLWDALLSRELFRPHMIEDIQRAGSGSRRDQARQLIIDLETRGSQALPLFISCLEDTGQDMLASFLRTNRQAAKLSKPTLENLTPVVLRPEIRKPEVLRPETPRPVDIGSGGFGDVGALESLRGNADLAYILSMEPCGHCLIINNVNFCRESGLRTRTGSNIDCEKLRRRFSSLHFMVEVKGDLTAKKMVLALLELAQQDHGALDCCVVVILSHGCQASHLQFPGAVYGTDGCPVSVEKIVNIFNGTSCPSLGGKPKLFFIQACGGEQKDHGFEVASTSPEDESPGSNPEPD
T2 sequence (P55211 331-416 limits assumed): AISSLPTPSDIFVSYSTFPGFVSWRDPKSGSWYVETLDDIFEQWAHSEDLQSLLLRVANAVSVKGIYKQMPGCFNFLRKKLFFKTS
Description: Caspase-9 activity was measured by monitoring the processing and activity of the purified recombinant zymogen form of caspase-3 that was produced in bacteria. Active caspase-9 (0.1 μM) was incubated with pro-caspase-3 (0.5 μM) in the presence or absence of GST-XIAP (0.1 μM). Experiments were performed with two independent preparations of active caspase-9. Samples were subsequently analyzed for pro-caspase-3 processing by immunoblot analysis. Asterisks denote the processed forms of the large subunit of caspase-3. Samples were simultaneously assayed for release of the AFC fluorophore from DEVD-AFC. Activity was arbitrarily designated as 100% for one of the two preparations of active caspase-9.
For the results shown in FIG. 7C, pro-caspase-9 was in vitro translated in reticulocyte lysates in the presence of ^35S-L-methionine and then purified by metal chromatography. […] Proteins were analyzed by SDS-PAGE and autoradiography. An asterisk denotes the processed form of caspase-9.

caspase-7 = molecular target: T3, caspase-7 (Homo sapiens, UniProt P55210); test: GST pull-down binding to caspase-7; settings: glutathione-Sepharose beads, immunoblot
T3 construct: Purified active caspase concentrations ranged from 0.1 nM to 10 nM; His6; made in house; host or cells: E. coli BL21(DE3)pLysS
T3 sequence (P55210 24-198 limits assumed): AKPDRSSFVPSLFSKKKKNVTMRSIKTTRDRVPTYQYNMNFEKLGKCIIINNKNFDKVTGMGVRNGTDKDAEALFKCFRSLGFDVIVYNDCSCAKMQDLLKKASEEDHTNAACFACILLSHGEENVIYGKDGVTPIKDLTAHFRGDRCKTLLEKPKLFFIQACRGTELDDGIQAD
T3 sequence (P55210 207-303 limits assumed): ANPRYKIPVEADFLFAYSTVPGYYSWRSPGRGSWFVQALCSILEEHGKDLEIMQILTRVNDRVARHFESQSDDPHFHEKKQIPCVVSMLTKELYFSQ
Description: Following incubation at 4° C. for 60 min, the beads were removed by centrifugation and washed twice with 100 vol 50 mM Tris (pH 7.5), 150 mM KCl, 2 mM DTT and 0.025% Triton-X100, then subjected to SDS-PAGE and immunoblot assay (see Example I.B.3).

pro-caspase-9 [3] = molecular target: T1, pro-caspase-9; test: GST pull-down binding of in vitro translated pro-caspase-9; settings: about 2 μM GST protein on glutathione-Sepharose

pro-caspase-9 processing in reconstituted system (in words) (pro-caspase-9 [2])	processing of 35S-pro-caspase-9 by active caspase-9 (in words) (caspase-9; 0.1 μM caspase-9, 0.1 μM GST-XIAP, 30° C., 1 hr)	pro-caspase-3 activation by caspase-9, coupled Ac-DEVD-AFC hydrolysis (in words) (caspase-9)	cleavage of pro-caspase-3 by caspase-9, immunoblot (in words) (caspase-9; equimolar to caspase-9 (0.1 μM), pro-caspase-3 0.5 μM)	binding of caspase-7 (in words) (caspase-7)	association with in vitro translated pro-caspase-9 (in words) (pro-caspase-9 [3])	Substance	DEVD-pNA hydrolysis, ΔA405 after 15 min ([1]; 293 extracts + cytochrome c/dATP, GST-XIAP 0.2 μM, GST controls 2 μM, His6-S5a 5 μM, untreated ≈0.01)	reduction of cytochrome c/dATP-induced DEVD-pNA hydrolyzing activity ([1]; extracts of cells transfected with pcDNA3-XIAP versus control plasmid)	DEVD hydrolysis in activated 293 cell cytosolic extracts (in words) ([1]; 3 μM, extracts activated 30 min with cytochrome c and dATP)
completely blocked	potently inhibited	efficiently inhibited	strongly inhibited	Specific binding	associated with pro-caspase-9	XIAP: X chromosome linked inhibitor of apoptosis protein (Genbank U32974), used mostly as recombinant GST fusion or expressed from plasmid	approximately the same as untreated control extracts	greater than 50%	–
completely blocked	–	efficiently inhibited	–	bound	associated with pro-caspase-9	c-IAP-2: cellular IAP protein c-IAP-2/HIAP-1/hMIHC, recombinant GST fusion or myc-tagged	–	–	inhibited DEVD hydrolysis
